Experiments:
O=C[C@H](O)COP(=O)(O)O = assay: purified protein; conditions: 2 mM NAD+, 5 mM phosphate, 40 mM Tris-HCl pH 8.5, 2 mM EDTA, 25 °C, fit with substrate inhibition
[1] = tested on: NC(=O)c1ccc[n+]([C@@H]2O[C@H](COP(=O)(O)OP(=O)(O)OC[C@H]3O[C@@H](n4cnc5c(N)ncnc54)[C@H](O)[C@@H]3O)[C@@H](O)[C@H]2O)c1; assay: purified protein; conditions: 2 mM G3P, 5 mM phosphate, 40 mM Tris-HCl pH 8.5, 2 mM EDTA, 25 °C

For “LiGAPDH (Leptospira interrogans serovar Copenhageni str. Fiocruz L1-130)”, the Km (O=C[C@H](O)COP(=O)(O)O) was 600 ± 100 µM, the kcat (O=C[C@H](O)COP(=O)(O)O) was 70 ± 7 s⁻¹ and the kcat/Km (O=C[C@H](O)COP(=O)(O)O) was 121000 ± 24000 M⁻¹ s⁻¹. It also gave a Km [1] of 81 ± 6 µM, a kcat [1] of 44.2 ± 0.9 s⁻¹ and a kcat/Km [1] of 543000 ± 44000 M⁻¹ s⁻¹.

— article PMC10318897, “The structure of Leptospira interrogans GAPDH sheds light into an immunoevasion factor that can target the anaphylatoxin C5a of innate immunity” (Frontiers in Immunology, 2023)
